Laboratory results published in paper PMC11032447.

B1: mouse secretagogin [mouse] / helix-b of the Habc domain of mouse syntaxin-4 [mouse] (parent)
chain 1: MDNARRKTPARLDAACFWQIWQRFDKEEKGYIRETELDAFFDHLLAKSGTEDTLMEENVQKVKEQLMTSHNVSKEGRILMKELASMFLSEDENFLLFFRLETPLDNSVEFMQIWRKYDADSSGFISAAELCNFLRDLFLHHKKNISEAELEEYTSTMMKIFDKNKDGRLDLNDLARILALQENFLLQFKMDASSTEERKRDFEKIFAHYDVSKTGALEGPEVDGFVKDMMELVQPSISGVDLDKFREILLRHCDVNKDGKIQKSELALCLGLKINP
chain 2: TPLPEESMKQGLQNLREEIKQLGREVRAQLKAIEPQKE

Variants of: B1
Experiment: ITC
Set-up: reference not given here
Details: with helix-b of the Habc domain of mouse syntaxin-4 [mouse]

ratio to parent	Variant
12.8	chain 1 MDNARRKTPARLDAACFWQIWQRFDKEEKGYIRETELDAFFDHLLAKSGTEDTLMEENVQKVKEQLMTSHNVSKEGRILMKELASMFLSEDENFLLFFRLETPLDNSVEFMQIWRKYDADSSGFISAAELCNFLRDLFLHHKKNISEAELEEYTSTMMKIFDKNKDGRLDLNDLARILALQENFLLQFKMDASSTEERKRDFEKIFAHYDVSKTGALEGPEVDGFVKDEMELVQPSISGVDLDKFREILLRHCDVNKDGKIQKSELALCLGLKINP [chain 1 M229E]
0.31	chain 1 MDNARRKTPARLDAACFWQIWQRFDKEEKGYIRETELDAFFDHLLAKSGTEDTLMEENVQKVKEQLMTSHNVSKEGRILMKELASMFLSEDENFLLFFRLETPLDNSVEFMQIWRKYDADSSGFISAAELCNFLRDLFLHHKKNISEAELEEYTSTMMKIFDKNKDGRLDLNDLARILALQENFLLQFKMDASSTEERKRDFEKIFAHYDVSKTGALEGPEVDGFVKDMMELAQPSISGVDLDKFREILLRHCDVNKDGKIQKSELALCLGLKINP [chain 1 V233A]

The remaining lines, values behind:

Variant	ratio to parent
chain 1 MDNARRKTPARLDAACFWQIWQRFDKEEKGYIRETELDAFFDHLLAKSGTEDTLMEENVQKVKEQLMTSHNVSKEGRILMKELASMFLSEDENFLLFFRLETPLDNSVEFMQIWRKYDADSSGFISAAELCNFLRDLFLHHKKNISEAELEEYTSTMMKIFDKNKDGRLDLNDLARILALQENFLLQFKMDASSTEERKRDFEKIFAHYDVSKTGALEGPEVDGFVKDAMELVQPSISGVDLDKFREILLRHCDVNKDGKIQKSELALCLGLKINP [chain 1 M229A]	3.98
chain 1 MDNARRKTPARLDAACFWQIWQRFDKEEKGYIRETELDAFFDHLLAKSGTEDTLMEENVQKVKEQLMTSHNVSKEGRILMKELASMFLSEDENFLLFFRLETPLDNSVEFMQIWRKYDADSSGFISAAELCNFLRDLFLHHKKNISEAELEEYTSTMMKIFDKNKDGRLDLNDLARILALQENFLLQFKMDASSTEERKRDFEKIFAHYDVSKTGALEGPEVDGFVKDMMELVQPSISGVDLDKFREILLRHCDVNKDGKIQKSELALCAGLKINP [chain 1 L270A]	39.8
chain 1 MDNARRKTPARLDAACFWQIWQRFDKEEKGYIRETELDAFFDHLLAKSGTEDTLMEENVQKVKEQLMTSHNVSKEGRILMKELASMFLSEDENFLLFFRLETPLDNSVEFMQIWRKYDADSSGFISAAELCNFLRDLFLHHKKNISEAELEEYTSTMMKIFDKNKDGRLDLNDLARILALQENFLLQFKMDASSTEEAKRDFEKIFAHYDVSKTGALEGPEVDGFVKDMMELVQPSISGVDLDKFREILLRHCDVNKDGKIQKSELALCLGLKINP [chain 1 R198A]	1.99
